T1: ASPH (aspartyl (asparaginyl) β-hydroxylase) (Homo sapiens (Human)) (UniProt Q12797)
T1 sequence: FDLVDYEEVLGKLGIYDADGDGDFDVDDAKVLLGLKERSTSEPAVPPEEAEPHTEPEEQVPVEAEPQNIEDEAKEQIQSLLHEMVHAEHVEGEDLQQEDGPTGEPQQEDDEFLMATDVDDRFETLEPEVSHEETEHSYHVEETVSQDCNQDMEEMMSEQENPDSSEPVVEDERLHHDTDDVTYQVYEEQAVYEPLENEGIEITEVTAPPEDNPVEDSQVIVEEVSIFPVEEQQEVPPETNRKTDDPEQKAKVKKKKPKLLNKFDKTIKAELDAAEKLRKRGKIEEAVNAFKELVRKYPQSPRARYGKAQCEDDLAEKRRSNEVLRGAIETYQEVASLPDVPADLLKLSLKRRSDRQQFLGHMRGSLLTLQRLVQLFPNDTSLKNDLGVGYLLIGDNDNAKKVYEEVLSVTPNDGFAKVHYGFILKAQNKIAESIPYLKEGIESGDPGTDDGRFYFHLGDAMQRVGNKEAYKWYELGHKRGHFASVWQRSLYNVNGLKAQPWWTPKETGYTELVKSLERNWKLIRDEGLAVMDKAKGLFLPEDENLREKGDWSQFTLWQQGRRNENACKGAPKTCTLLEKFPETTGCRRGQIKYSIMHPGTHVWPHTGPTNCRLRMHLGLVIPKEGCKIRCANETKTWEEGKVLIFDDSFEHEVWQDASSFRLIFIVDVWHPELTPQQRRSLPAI

T2: ASPH (aspartyl (asparaginyl) β-hydroxylase) (Homo sapiens (Human), UniProt Q12797 75-758, limits assumed)
T2 construct: The antibodies were raised against a peptide of human ASPH; also called the ASPH protein
T2 sequence: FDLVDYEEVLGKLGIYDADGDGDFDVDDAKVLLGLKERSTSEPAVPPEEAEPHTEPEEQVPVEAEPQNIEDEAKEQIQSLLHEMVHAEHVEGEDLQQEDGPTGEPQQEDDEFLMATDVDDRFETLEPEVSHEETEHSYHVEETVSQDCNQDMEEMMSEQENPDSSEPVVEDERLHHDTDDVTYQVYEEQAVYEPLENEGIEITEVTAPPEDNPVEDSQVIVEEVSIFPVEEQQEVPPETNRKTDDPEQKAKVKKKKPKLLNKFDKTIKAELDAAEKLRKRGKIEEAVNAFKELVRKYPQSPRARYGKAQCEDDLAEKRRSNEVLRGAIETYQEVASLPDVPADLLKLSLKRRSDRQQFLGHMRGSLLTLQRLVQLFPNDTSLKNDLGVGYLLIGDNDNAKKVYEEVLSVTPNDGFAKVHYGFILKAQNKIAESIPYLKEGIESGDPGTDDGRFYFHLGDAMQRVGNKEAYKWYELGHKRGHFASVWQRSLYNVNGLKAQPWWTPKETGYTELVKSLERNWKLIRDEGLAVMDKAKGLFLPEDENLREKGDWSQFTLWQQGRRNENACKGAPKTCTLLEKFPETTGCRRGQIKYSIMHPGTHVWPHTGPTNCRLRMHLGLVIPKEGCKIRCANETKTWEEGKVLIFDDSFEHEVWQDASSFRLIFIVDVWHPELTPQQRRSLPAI


Assays:
[1] = target: T1, ASPH (aspartyl (asparaginyl) β-hydroxylase) (Homo sapiens (Human)); test: SPR (SensiQ Pioneer), antibody captured via Protein G, ASPH as analyte
[2] = target: T2, ASPH (aspartyl (asparaginyl) …); test: as above

| Kd [1] [nM] | koff [1] [s⁻¹] | kon [1] [M⁻¹ s⁻¹] | Kd [2] [nM] | kon [2] [M⁻¹ s⁻¹] | Binder |
| --- | --- | --- | --- | --- | --- |
| 144 | 0.00243 | 16800 | – | – | 5H4/5K3 (antibody, V domains shown) VH: QSLEESGGDLVKPGASLTLTCKASGFDFSSNAMCWVRQAPGKGPEWIACIDNGDGSTDYATWAKGRFTISKTSSTTVTLQMTSLTAADTATYFCTRNFNLWGQGTLVTVSS VL: AQVLTQTASSVSAAVGGTVTISCQSSQSVYDNNRLAWFQQKPGQPPKLLIYETSKLASGVPLRFKGSGSGTQFTLTISDLECDDAATYYCLGSYSGYIYTFGGGTEVVVKG |
| – | – | – | 118 | 20400 | 5H1/5K1 (antibody, V domains shown) VH: QSLEESGGDLVKPGASLTLTCKASGFDFSSNAMCWVRQAPGKGPEWIACIDNGDGSTDYATWAKGRFTISKTSSTTVTLQMTSLTAADTATYFCTRNFNLWGQGTLVTVSS VL: AQVLTQTASSVSAAVGGTVTISCQSSQSVYDNNRLAWFQQKPGQPPKLLIYETSKLASGVPLRFKGSGSGTQFTLTISDLECDDAATYYCLGSYSGYIYTFGGGTEVVVK |
